Source: patent US20180100009A1 (VHSQUARED, published 2018)

Tests used:
[1] = molecular target: T1, TcdA from C. difficile ribotype 027 (Clostridium difficile ribotype 027 …, UniProt P16154 1-2710); test: sandwich ELISA
T1 construct: also called 027 TcdA; TcdA R20291 (027)

[2] = molecular target: T2, TcdA from C. difficile ribotype 087 (Clostridium difficile ribotype 087 …, UniProt P16154 1-2710); test: sandwich ELISA
T2 construct: also called 087 TcdA; TcdA 10463 (087)

[3] = molecular target: T3, TcdB from C. difficile ribotype 087 (Clostridium difficile ribotype 087, UniProt P18177 2-2366); test: ELISA: TcdB coat, quadrahead, detected with rabbit polyclonal anti-ICVD
T3 construct: also called 087 TcdB

[4] = molecular target: T1, TcdA from C. difficile ribotype 027; test: sandwich ELISA: TcdB coat, quadrahead, TcdA 0-20 ng/ml, rabbit anti-TcdA pAb

Measured: binding result

B1: ID-3C (bispecific antibody)
chain: DVQLQESGGGLVQAGDSLRLSCAASGATLSSYTIGWFRQAPEKEREFVAGSSRDGRTNYYANSVKGRFTISRDNAKNTVYLQMNSLKPEDTAVYYCAAHTTSGVPVRERSYAYWGQGTQVTVSSGGGGSGGGGSGGGGSGGGGSDVQLQESGGGLVQAGGSLRLSCAASGATSDVYAIGWFRQVPGKEREFVATINRSGSDSYYADSVKGRFTISRDNAKNTVYLQMNSLKPEETAVYYCAASRSDCIGYGCRRVSQDYWGQGTQVTVSSGGGGSGGGGSGGGGSGGGGSDVQLQESGGGLVQAGGSLRLSCVISGMDFSHKPAGWFRQAPGKEREFVASITTRASTHYADSVKGRFTISRDNAKNTVYLEMNSLKPEDTAVYYCNSEYYWGQGTQVTVSSGGGGSGGGGSGGGGSGGGGSDVQLQESGGGLVQAGGSLRLSCAASGATFSSYYIGWFRQAPGKEREFVAAINGSGGNRISADSVKGRFTISRDNAKNTVYLQLNSLKPEDTAVYYCAASLTYYGRSARYDYWGQGTQVTVSS
binds: [1] | [2] | [3]

B2: ID-1C (bispecific antibody)
chain: DVQLQESGGGLVQAGGSLRLSCAASGATSDVYAIGWFRQVPGKEREFVATINRSGSDSYYADSVKGRFTISRDNAKNTVYLQMNSLKPEETAVYYCAASRSDCIGYGCRRVSQDYWGQGTQVTVSSGGGGSGGGGSGGGGSGGGGSDVQLQESGGGLVQAGGSLRLSCVISGMDFSHKPAGWFRQAPGKEREFVASITTRASTHYADSVKGRFTISRDNAKNTVYLEMNSLKPEDTAVYYCNSEYYWGQGTQVTVSSGGGGSGGGGSGGGGSGGGGSDVQLQESGGGLVQAGDSLRLSCAASGATLSSYTIGWFRQAPEKEREFVAGSSRDGRTNYYANSVKGRFTISRDNAKNTVYLQMNSLKPEDTAVYYCAAHTTSGVPVRERSYAYWGQGTQVTVSSGGGGSGGGGSGGGGSGGGGSDVQLQESGGGLVQAGGSLRLSCAASGATFSSYYIGWFRQAPGKEREFVAAINGSGGNRISADSVKGRFTISRDNAKNTVYLQLNSLKPEDTAVYYCAASLTYYGRSARYDYWGQGTQVTVSS
notes: also called 1D-1C
binds: [2] | [3] | [4]
